# Results as given in patent US20240102094A1 (Amgen, published 2024).
# Changes are numbered by the printed parent chain.
# T1: human TREM2, common variant, expressed on cells (human, UniProt Q9NZC2 19-230)
# T1 sequence: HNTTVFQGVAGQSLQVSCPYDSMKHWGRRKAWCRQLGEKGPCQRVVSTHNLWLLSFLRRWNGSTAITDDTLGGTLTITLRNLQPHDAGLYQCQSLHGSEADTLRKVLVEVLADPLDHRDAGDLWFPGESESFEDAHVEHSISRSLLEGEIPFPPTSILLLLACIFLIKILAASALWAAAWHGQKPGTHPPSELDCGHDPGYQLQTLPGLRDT
# T2: human TREM2 R47H variant, expressed on cells (human, UniProt Q9NZC2 19-230)
# T2 construct: On BMMs from TREM2R47H transgenic mice or on 2B4 NFAT:GFP reporter cells with DAP12; also called hTREM2R47H
# T2 chain: T1 sequence with R29H
# T3: mTREM2 expressed with mDAP12 on HEK293 cells (mouse, UniProt Q99NH8 19-227)
# T3 construct: whole, on cells
# T3 sequence (looked up): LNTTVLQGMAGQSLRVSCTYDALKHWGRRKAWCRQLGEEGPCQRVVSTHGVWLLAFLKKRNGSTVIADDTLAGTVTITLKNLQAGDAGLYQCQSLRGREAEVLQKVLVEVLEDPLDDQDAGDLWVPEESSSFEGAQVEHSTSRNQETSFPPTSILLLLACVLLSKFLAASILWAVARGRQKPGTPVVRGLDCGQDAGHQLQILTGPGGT
# B1: hT2AB (fully human anti-human TREM2 agonistic monoclonal antibody, effectorless hIgG1) (antibody, V domains shown)
# VH: EVQLVQSGAEVKKPGESLKISCKGSGYSFTSYWIGWVRQMPGKGLEWMGIIYPGDADARYSPSFQGQVTISADKSISTAYLQWSSLKASDTAMYFCARRRQGIFGDALDFWGQGTLVTVSS
# VL: EIVMTQSPATLSVSPGERATLSCRASQSVSSNLAWFQQKPGQAPRLLIYGASTRATGIPARFSGSGSGTEFTLTISSLQPEDFAVYYCLQDNNFPPTFGQGTKVDIKR
# notes: also called hT2AB IgG1; anti-human TREM2 mAb hT2AB
# B2: hT2AB Fab (monomeric antigen-binding fragment of hT2AB) (Fab, V domains shown)
# VH: B1 VH
# VL: EIVMTQSPATLSVSPGERATLSCRASQSVSSNLAWFQQKPGQAPRLLIYGASTRATGIPARFSGSGSGTEFTLTISSLQPEDFAVYYCLQDNNFPPTFGQGTKVDIK
# notes: also called hT2AB Fab protein
# Key:
# [1] = biological target: T1, human TREM2, common variant, expressed …; assay: cell-based or functional assay
# [2] = biological target: T2, human TREM2 R47H variant, expressed on …; assay: flow cytometry on bone marrow-derived macrophages from TREM2R47H mice, detection with anti-hIgG Fc-PE
# From the text: An anti-hTREM1 antibody and an isotype-matched hIgG2 control antibody were used as controls. […] Dead cells were excluded by DAPI staining.
# [3] = biological target: T3, mTREM2 expressed with mDAP12 on HEK293 …; assay: flow cytometry on HEK293 cells expressing mTREM2 and mDAP12, Geomean Fold (S/B) against antibody concentration
# [4] = biological target: T4, recombinant hTREM2:GSS:Flag:6xHis (human, UniProt Q9NZC2 19-174, minimally biotinylated (0.3-0.4 biotin/mol) when immobilised on streptavidin sensors); assay: Octet BLI; biotinylated hTREM2:GSS:Flag:6xHis on streptavidin sensors, Fab dilution series 30, 10, 3.3 nM, global 1:1 fit; Fab, not IgG; biotinylated hTREM2 on streptavidin sensors
# T4 construct: also called hTREM2-His; purified human TREM2; not shown: Flag tag
Binder,EC50 of pSyk induction in HEK293 cells expressing human TREM2 and DAP12 (clone G13) [1],EC50 of pSyk induction in human monocyte-derived macrophages (hMacs) [1],binding result [2],binding result [3],Kd [4]
B1,222 pM,166 pM,binds,no binding (tested: 5 ug/mL),
B2,,,,,50 nM
